Experimental data: US20220153847A1 (Chugai, published 2022)
Changes are numbered by the printed parent chain.

T1: HLA-DQ2.5 on HLA-DQ2.5-positive PBMC B cells (human, UniProt P01909 24-254; P01920 33-261)
T1 construct: whole, on cells; also called HLA-DQ2.5+ PBMC B cell
T1 MHC II alpha: not shown
T1 MHC II beta: not shown

T2: HLA-DQ2.2 on Ba/F3 cells (human, UniProt P01909 24-216, limits assumed)
T2 construct: whole, on cells; also called Ba/F3-HLA-DQ2.2
T2 MHC II alpha: not shown
T2 MHC II beta: not shown

B1: DQN0344xx//DQN0429cc (bispecific antibody, human IgG1, kappa)
heavy 1: QSLEESGGGLVKPGGTLTLTCTASGFSFSSSYWMCWVRQAPGKGLEWVACVYGGSDTTYYASWTKGRFTISKGSSTTVALQVTSLTAADTATYFCARDPLNYYYYGELNLWGPGTLVTVSSASTKGPSVFPLAPSSKSTSGGTAALGCLVKDYFPEPVTVSWNSGALTSGVHTFPAVLQSSGLYSLSSVVTVPSSSLGTQTYICNVNHKPSNTKVDKRVEPKSCDKTHTCPPCPAPELRRGPSVFLFPPKPKDTLMISRTPEVTCVVVDVSHEDPEVKFNWYVDGVEVHNAKTKPREEQYNSTYRVVSVLTVLHQDWLNGKEYKCKVSNKALPAPIEKTISKAKGQPREPQVYTLPPSREEMTKNQVSLTCLVKGFYPSDIAVEWESNGQPENNYKTTPPYLDSDGSFFLYSKLTVDKSRWQQGNVFSCSVMHEALHNHYTQESLSLSP
light 1: AVVLTQTASPVSAAVGGTVTIRCQATENIYSGLAWYQQKPGQPPKVLIYYVSTLASGVPSRFKGSGSGTEYTLTISGVQCDDAATYYCQTYHDISNVTFGGGTKVEIKRTVAAPSVFIFPPSDEQLKSGTASVVCLLNNFYPREAKVQWKVDNALQSGNSQESVTEQDSKDCTYSLSSTLTLSKADYEKHKVYACEVTHQGLSSPVTKSFNRGEC
heavy 2: QEQLVESGGGLVQPEGSLTLTCTASGFSFSSSYYMCWVRQAPGKGLEWIGCIYTGSGSTDYATWVNGRFTISKTSSTTVTLQMTSLTVADTATYFCARDIGIDYNFWGPGTLVTVSSASTKGPSVFPLAPSSKSTSGGTAALGCLVKDYFPEPVTVSWNSGALTSGVHTFPAVLQSSGLYSLSSVVTVPSSSLGTQTYICNVNHKPSNTKVDKRVEPKSCDKTHTCPPCPAPELRRGPSVFLFPPKPKDTLMISRTPEVTCVVVDVSHEDPEVKFNWYVDGVEVHNAKTKPREEQYNSTYRVVSVLTVLHQDWLNGKEYKCKVSNKALPAPIEKTISKAKGQPREPQVYTLPPSRKEMTKNQVSLTCLVKGFYPSDIAVEWESNGQPENNYKTTPPYLDSDGSFFLYSKLTVDKSRWQQGNVFSCSVMHEALHNHYTQKSLSLSP
light 2: AFELTQTPSFVEARVGGTVTIKCQATQSISSYLNWYQQKPGQPPKLLIYYASTLASGVPSRFKGSGSGTEFTLTISGVECADAATYYCHYGISYVSFGGGTKVEIKRTVAAPSVFIFPPSDEQLKSGTASVVCLLNNFYPREAKVQWKVDNALQSGNSQESVTEQDSKDCTYSLSSTLTLSKADYEKHKVYACEVTHQGLSSPVTKSFNRGEC
B2: DQN0429cc//IC17 (bispecific antibody, human IgG1, kappa)
heavy 1: B1 heavy 2 with K356E, K439E
light 1: B1 light 2
heavy 2: QVQLQQSGPQLVRPGASVKISCKASGYSFTSYWMHWVNQRPGQGLEWIGMIDPSYSETRLNQKFKDKATLTVDKSSSTAYMQLSSPTSEDSAVYYCALYGNYFDYWGQGTTLTVSSASTKGPSVFPLAPSSKSTSGGTAALGCLVKDYFPEPVTVSWNSGALTSGVHTFPAVLQSSGLYSLSSVVTVPSSSLGTQTYICNVNHKPSNTKVDKRVEPKSCDKTHTCPPCPAPELRRGPSVFLFPPKPKDTLMISRTPEVTCVVVDVSHEDPEVKFNWYVDGVEVHNAKTKPREEQYNSTYRVVSVLTVLHQDWLNGKEYKCKVSNKALPAPIEKTISKAKGQPREPQVYTLPPSRKEMTKNQVSLTCLVKGFYPSDIAVEWESNGQPENNYKTTPPYLDSDGSFFLYSKLTVDKSRWQQGNVFSCSVMHEALHNHYTQKSLSLSP
light 2: DIQMTQSSSSFSVSLGDRVTITCKASEDIYNRLAWYQQKPGNAPRLLISGATSLETGVPSRFSGSGSGKDYTLSITSLQTEDVATYYCQQYWSTPYTFGGGTKLEVKRTVAAPSVFIFPPSDEQLKSGTASVVCLLNNFYPREAKVQWKVDNALQSGNSQESVTEQDSKDSTYSLSSTLTLSKADYEKHKVYACEVTHQGLSSPVTKSFNRGEC

Experiments:
[1] = biological target: T1, HLA-DQ2.5 on HLA-DQ2.5-positive PBMC B …; experiment: FACS, PBMC B cells; IC17=0%, DQN0139bb//IC17=100%
[2] = biological target: DQ2.5/alpha 1 gliadin peptide on IHW9023 cells (human); experiment: cell-based or functional assay
[3] = biological target: DQ2.5/alpha 1b gliadin peptide on IHW9023 cells (human); experiment: cell-based or functional assay
[4] = biological target: DQ2.5/alpha 2 gliadin peptide on IHW9023 cells (human); experiment: cell-based or functional assay
[5] = biological target: DQ2.5/omega 2 gliadin peptide on IHW9023 cells (human); experiment: cell-based or functional assay
[6] = biological target: DQ2.5/omega 1 gliadin peptide on IHW9023 cells (human); experiment: cell-based or functional assay
[7] = biological target: DQ2.5/gamma 1 gliadin peptide on IHW9023 cells (human); experiment: cell-based or functional assay
[8] = biological target: DQ2.5/BC hordein peptide on IHW9023 cells (human); experiment: cell-based or functional assay
[9] = biological target: T3, HLA-DQ2.5/secalin 2 peptide complex on Ba/F3 cells (human); experiment: FACS, Ba/F3 cells; IC17=0%, DQN0139bb//IC17=100%;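 also: flow cytometry binding of anti-HLA-DQ antibodies at 5 µg/mL, incubated 30 min at room temperature with Ba/F3 lines presenting HLA-DQ/peptide complexes; antibody tested at 5 microgram/mL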
T3 construct: whole, on cells; also called Ba/F3-HLA-DQ2.5/secalin 2

[10] = biological target: T4, HLA-DQ2.5/alpha 3 gliadin peptide complex on Ba/F3 cells (human); experiment: FACS, Ba/F3 cells; IC17=0%, DQN0139bb//IC17=100%;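 also: flow cytometry binding of anti-HLA-DQ antibodies at 5 µg/mL, incubated 30 min at room temperature with Ba/F3 lines presenting HLA-DQ/peptide complexes; antibody tested at 5 microgram/mL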
T4 construct: whole, on cells; also called Ba/F3-HLA-DQ2.5/alpha 3 gliadin; HLA-DQ2.5/a3 gliadin

[11] = biological target: T5, HLA-DQ2.5/avenin 1 peptide complex on Ba/F3 cells (human); experiment: FACS, Ba/F3 cells; IC17=0%, DQN0139bb//IC17=100%;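 also: flow cytometry binding of anti-HLA-DQ antibodies at 5 µg/mL, incubated 30 min at room temperature with Ba/F3 lines presenting HLA-DQ/peptide complexes; antibody tested at 5 microgram/mL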
T5 construct: whole, on cells; also called Ba/F3-HLA-DQ2.5/avenin 1

[12] = biological target: T6, HLA-DQ2.5/avenin 3 peptide complex on Ba/F3 cells (human); experiment: FACS, Ba/F3 cells; IC17=0%, DQN0139bb//IC17=100%;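 also: flow cytometry binding of anti-HLA-DQ antibodies at 5 µg/mL, incubated 30 min at room temperature with Ba/F3 lines presenting HLA-DQ/peptide complexes; antibody tested at 5 microgram/mL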
T6 construct: whole, on cells; also called Ba/F3-HLA-DQ2.5/avenin 3

[13] = biological target: T7, HLA-DQ2.5/hordein 1 peptide complex on Ba/F3 cells (human); experiment: FACS, Ba/F3 cells; IC17=0%, DQN0139bb//IC17=100%
T7 construct: whole, on cells; also called Ba/F3-HLA-DQ2.5/hordein 1

[14] = biological target: T8, HLA-DQ2.5/omega 1 gliadin peptide complex on Ba/F3 cells (human); experiment: FACS, Ba/F3 cells; IC17=0%, DQN0139bb//IC17=100%
T8 construct: whole, on cells; also called Ba/F3-HLA-DQ2.5/omega 1 gliadin; HLA-DQ2.5/w1 gliadin

[15] = biological target: T9, HLA-DQ2.5/14mer 1 peptide complex on Ba/F3 cells (human); experiment: FACS, Ba/F3 cells; IC17=0%, DQN0139bb//IC17=100%
T9 construct: whole, on cells; also called Ba/F3-HLA-DQ2.5/14mer 1

[16] = biological target: T10, HLA-DQ2.5/omega 2 gliadin peptide complex on Ba/F3 cells (human); experiment: FACS, Ba/F3 cells; IC17=0%, DQN0139bb//IC17=100%
T10 construct: whole, on cells; also called Ba/F3-HLA-DQ2.5/omega 2 gliadin; HLA-DQ2.5/w2 gliadin

[17] = biological target: T11, HLA-DQ2.5/avenin 2 peptide complex on Ba/F3 cells (human); experiment: FACS, Ba/F3 cells; IC17=0%, DQN0139bb//IC17=100%
T11 construct: whole, on cells; also called Ba/F3-HLA-DQ2.5/avenin 2

[18] = biological target: T12, HLA-DQ2.5/alpha 1 gliadin peptide complex on Ba/F3 cells (human); experiment: FACS, Ba/F3 cells; IC17=0%, DQN0139bb//IC17=100%
T12 construct: whole, on cells; also called Ba/F3-HLA-DQ2.5/alpha 1 gliadin; HLA-DQ2.5/a1 gliadin

[19] = biological target: T13, HLA-DQ2.5/gamma 1 gliadin peptide complex on Ba/F3 cells (human); experiment: FACS, Ba/F3 cells; IC17=0%, DQN0139bb//IC17=100%
T13 construct: whole, on cells; also called Ba/F3-HLA-DQ2.5/gamma 1 gliadin; HLA-DQ2.5/g1 gliadin

[20] = biological target: T14, HLA-DQ2.5/alpha 2 gliadin peptide complex on Ba/F3 cells (human); experiment: FACS, Ba/F3 cells; IC17=0%, DQN0139bb//IC17=100%
T14 construct: whole, on cells; also called Ba/F3-HLA-DQ2.5/alpha 2 gliadin; HLA-DQ2.5/a2 gliadin

[21] = biological target: T15, HLA-DQ2.5/26mer gliadin peptide complex on Ba/F3 cells (human); experiment: FACS, Ba/F3 cells; IC17=0%, DQN0139bb//IC17=100%
T15 construct: whole, on cells; also called Ba/F3-HLA-DQ2.5/26mer gliadin

[22] = biological target: T16, HLA-DQ2.5/hordein 2 peptide complex on Ba/F3 cells (human); experiment: FACS, Ba/F3 cells; IC17=0%, DQN0139bb//IC17=100%
T16 construct: whole, on cells; also called Ba/F3-HLA-DQ2.5/hordein 2

[23] = biological target: T17, HLA-DQ2.5/alpha 1b gliadin peptide complex on Ba/F3 cells (human); experiment: FACS, Ba/F3 cells; IC17=0%, DQN0139bb//IC17=100%
T17 construct: whole, on cells; also called Ba/F3-HLA-DQ2.5/alpha 1b gliadin; HLA-DQ2.5/a1b gliadin

[24] = biological target: T18, HLA-DQ2.5/BC hordein peptide complex on Ba/F3 cells (human); experiment: FACS, Ba/F3 cells; IC17=0%, DQN0139bb//IC17=100%
T18 construct: whole, on cells; also called Ba/F3-HLA-DQ2.5/BC hordein

[25] = biological target: T19, HLA-DQ2.5/gamma 2 gliadin peptide complex on Ba/F3 cells (human); experiment: FACS, Ba/F3 cells; IC17=0%, DQN0139bb//IC17=100%
T19 construct: whole, on cells; also called Ba/F3-HLA-DQ2.5/gamma 2 gliadin; HLA-DQ2.5/g2 gliadin

[26] = biological target: T20, HLA-DQ2.5/gamma 4b gliadin peptide complex on Ba/F3 cells (human); experiment: FACS, Ba/F3 cells; IC17=0%, DQN0139bb//IC17=100%
T20 construct: whole, on cells; also called Ba/F3-HLA-DQ2.5/gamma 4b gliadin; HLA-DQ2.5/g4b gliadin

[27] = biological target: T21, HLA-DQ2.5/secalin 1 peptide complex on Ba/F3 cells (human); experiment: FACS, Ba/F3 cells; IC17=0%, DQN0139bb//IC17=100%
T21 construct: whole, on cells; also called Ba/F3-HLA-DQ2.5/secalin 1

HLA-DQ2.2 on Ba/F3 cells = biological target: T2, HLA-DQ2.2 on Ba/F3 cells; experiment: FACS, Ba/F3 cells; IC17=0%, DQN0139bb//IC17=100%
[28] = biological target: T22, HLA-DQ2.5/33mer gliadin peptide complex on Ba/F3 cells (human); experiment: FACS, Ba/F3 cells; IC17=0%, DQN0139bb//IC17=100%
T22 construct: whole, on cells; also called Ba/F3-HLA-DQ2.5/33mer gliadin

Binder | % MFI [9] | % MFI [10] | % MFI [13] | % MFI [14] | % MFI [15] | % MFI [16] | % MFI [18] | % MFI [19] | % MFI [20] | % MFI [21] | % MFI [22] | % MFI [23] | % MFI [24] | % MFI [25] | % MFI [26] | % MFI [27] | % MFI (HLA-DQ2.2 on Ba/F3 cells) | also measured
B1 | 43.3% | 18% | 20.3% | 43% | 19.4% | 19.3% | 63.1% | 16.9% | 58.7% | 30.7% | 90% | 64.6% | 18.5% | 1.3% | 6.2% | 37.8% | 0.8% | % MFI [1]: 0.4%; IC50, Jurkat NFAT-Luc T cell activation [2]: 0.0498 µg/mL; IC50, Jurkat NFAT-Luc T cell activation [3]: 0.171 µg/mL; IC50, Jurkat NFAT-Luc T cell activation [4]: 0.00196 µg/mL; IC50, Jurkat NFAT-Luc T cell activation [5]: 0.0146 µg/mL; IC50, Jurkat NFAT-Luc T cell activation [6]: 0.0397 µg/mL; IC50, Jurkat NFAT-Luc T cell activation [7]: 0.0947 µg/mL; IC50, Jurkat NFAT-Luc T cell activation [8]: 0.415 µg/mL; % MFI [11]: 14.2%; % MFI [12]: 19.6%; % MFI [17]: 18.3%
B2 | 30.6% | 0.8% | 1.5% | 11.5% | 16.3% | 45.4% | 3.5% | 12.6% | 55.5% | 26.2% | 93.2% | 9.2% | 14.9% | 0.8% | 3.2% | 10.9% | 0.3% | % MFI [28]: 67.1%
